Reference: PMC8866402

Assays:
[1] = molecular target: recombinant human TGF-β1 produced in-house (human)
[2] = molecular target: recombinant mouse TGF-β1 (mouse)
Sequence of recombinant mouse TGF-β1 (mouse) (P04202 279-390): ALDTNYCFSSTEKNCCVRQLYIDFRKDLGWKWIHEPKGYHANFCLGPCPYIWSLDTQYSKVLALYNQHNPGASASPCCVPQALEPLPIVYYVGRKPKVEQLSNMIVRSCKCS

Sequence of recombinant human TGF-β1 produced in-house (human) (P01137 279-390): as the sequence (P04202 279-390) above, with S75A counted along it

B1: strep-tag-fortilin (recombinant human fortilin with an N-terminal Strep-tag II) (natural protein)
chain: MIIYRDLISHDEMFSDIYKIREIADGLCLEVEGKMVSRTEGNIDDSLIGGNASAEGPEGEGTESTVITGVDIVMNHHLQETSFTKEAYKKYIKDYMKSIKGKLEEQRPERVKPFMTGAAEQIKHILANFKNYQFFIGENMNPDGMVALLDYREDGVTPYMIFFKDGLEMEKC
SBE-luciferase activity (firefly/Renilla) in HEK293 cells treated with TGF-β1 (1 nM) without vs with strep-tag-fortilin (3 nM); value given is with fortilin [1]: 5.4 A.U.
SEAP reporter (SBE) activity of MFB-F11 cells stimulated with 156 pM TGF-β1 pre-incubated with 0, 19.5 or 195 nM strep-tag-fortilin; value given is at 195 nM fortilin [2]: 6.3 A.U.
